Here are results for one molecule from US7528109 (GEORGETOWN UNIVERSITY, dated 2009).

In assay [1] the target is T1, ALK (anaplastic lymphoma kinase) receptor, full length, expressed on cells (human, UniProt Q9UM73 19-1620).
T1 construct: U87MG cells carry endogenous human ALK; also called PTNR; PTN receptor
As to the kind of experiment: saturation binding of 35S-labeled PTN to 32D/ALK cells.

For assay [2], the target named is T1, ALK (anaplastic lymphoma kinase) …. As to the kind of experiment: saturation binding of 35S-labeled PTN to 32D/ALK cells, non-linear regression. The protocol: For this, ALK-negative mouse hematopoietic cell line 32D was used which grows in suspension culture and expressed the ALK protein in these cells. Also used was ^35S-labeled PTN from metabolic labeling experiments as a ligand for the receptor binding studies. Briefly, cell lysates were then prepared and a total of 3 mg of cellular proteins subjected to immunoprecipitation as described. (Souttou et al., 1997). For uncoupled antibodies, Sepharose-bound protein G (Gammabind plus, Amersham/Pharmacia) was used to precipitate immunocomplexes. Antibodies were anti-phosphotyrosine (agarose-coupled 4G10, 30 µl; UBI, Lake Placid NY), anti-PTNR (a cocktail of antibodies from Santa Cruz Biotechnology, Santa Cruz Calif. and from Accurate Chemicals, Westburg N.Y.), anti-IRS-1 (3 µg of rabbit IgG). Resulting precipitates were analyzed by SDS polyacrylamide gel electrophoresis. Experimental procedures for immunoblots for phosphotyrosine, IRS-1 (anti-IRS-1, Transduction Laboratories, Lexington Ky.), PLC-gamma (anti-PLC-gamma, UBI)and PI3-kinase (UBI) using unlabelled cells as described (Souttou et al., 1997).
Saturation binding of radiolabeled PTN to 32D/ALK (filled symbols) and 32D/control cells (open symbols) (FIG. 2b). Data were pooled from two independent experiments with triplicate repeat measurements of data points. […]

T1 sequence (Q9UM73 other isoform, or with tags, fused parts or gaps limits assumed): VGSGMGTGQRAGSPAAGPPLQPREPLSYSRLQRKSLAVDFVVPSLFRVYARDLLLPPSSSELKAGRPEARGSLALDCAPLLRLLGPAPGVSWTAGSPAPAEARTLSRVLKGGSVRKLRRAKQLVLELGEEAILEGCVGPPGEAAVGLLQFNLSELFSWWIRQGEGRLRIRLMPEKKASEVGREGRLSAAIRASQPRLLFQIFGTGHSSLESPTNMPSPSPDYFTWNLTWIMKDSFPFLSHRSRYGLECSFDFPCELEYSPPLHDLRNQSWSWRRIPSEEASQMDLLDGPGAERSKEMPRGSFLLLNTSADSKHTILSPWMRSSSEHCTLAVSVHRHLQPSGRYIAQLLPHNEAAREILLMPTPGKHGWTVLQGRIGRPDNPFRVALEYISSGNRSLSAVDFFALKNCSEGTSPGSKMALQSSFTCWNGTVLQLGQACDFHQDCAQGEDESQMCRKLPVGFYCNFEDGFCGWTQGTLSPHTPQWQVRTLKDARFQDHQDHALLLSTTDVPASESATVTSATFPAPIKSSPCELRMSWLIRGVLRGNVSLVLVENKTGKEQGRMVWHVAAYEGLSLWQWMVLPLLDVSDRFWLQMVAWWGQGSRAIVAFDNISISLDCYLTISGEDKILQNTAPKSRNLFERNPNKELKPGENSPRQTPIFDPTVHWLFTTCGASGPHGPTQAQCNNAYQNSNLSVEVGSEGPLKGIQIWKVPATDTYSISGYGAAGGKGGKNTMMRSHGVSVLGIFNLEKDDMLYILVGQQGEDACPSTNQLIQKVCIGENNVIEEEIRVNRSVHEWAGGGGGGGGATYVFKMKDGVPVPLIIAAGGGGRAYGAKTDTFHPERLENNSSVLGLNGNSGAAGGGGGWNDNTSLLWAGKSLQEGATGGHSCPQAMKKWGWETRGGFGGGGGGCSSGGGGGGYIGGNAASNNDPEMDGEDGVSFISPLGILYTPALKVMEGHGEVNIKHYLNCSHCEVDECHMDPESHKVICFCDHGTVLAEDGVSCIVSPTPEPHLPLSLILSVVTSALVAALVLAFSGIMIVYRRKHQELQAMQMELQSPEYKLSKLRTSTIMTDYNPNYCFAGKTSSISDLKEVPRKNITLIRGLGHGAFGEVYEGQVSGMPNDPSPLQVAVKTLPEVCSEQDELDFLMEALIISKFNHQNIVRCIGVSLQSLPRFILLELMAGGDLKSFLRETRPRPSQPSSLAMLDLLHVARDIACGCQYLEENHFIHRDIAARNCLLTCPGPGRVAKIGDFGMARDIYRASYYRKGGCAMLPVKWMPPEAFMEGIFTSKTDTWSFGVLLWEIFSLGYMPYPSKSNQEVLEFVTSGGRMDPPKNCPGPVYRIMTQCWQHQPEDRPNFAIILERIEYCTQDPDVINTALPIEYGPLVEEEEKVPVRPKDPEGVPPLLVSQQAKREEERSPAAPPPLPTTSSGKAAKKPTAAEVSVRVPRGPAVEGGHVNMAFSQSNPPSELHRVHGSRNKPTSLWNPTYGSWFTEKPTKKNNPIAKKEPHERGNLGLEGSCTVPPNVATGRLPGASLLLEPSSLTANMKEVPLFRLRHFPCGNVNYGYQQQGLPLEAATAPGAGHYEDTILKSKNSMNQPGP

B1: pleiotrophin (PTN), purified from the culture supernatant of cells transfected with the human PTN cDNA (ligand, UniProt P21246 33-168, looked up)
chain: GKKEKPEKKVKKSDCGEWQWSVCVPTSGDCGLGTREGTRTGAECKQTMKTQRCKIPCNWKKQFGAECKYQFQAWGECDLNTALKTRTGSLKRALHNAECQKTVTISKPCGKLTKPKPQAESKKKKKEGKKQEKMLD
notes: also called PTN ligand; radiolabeled PTN
As for B1, the Kd in assay [1] was 0.03 to 0.04 nM; in assay [2], 0.032 nM.
